Measured values from article PMC4491846.

Target: Tulane virus (TV) virions, CsCl gradient-purified (Tulane virus)

Substance: Maackia amurensis leukoagglutinin (MAL), biotinylated (from UniProt P0DKL3 30-278) (natural protein)
- TV infectivity in LLC-MK2 cells by plaque assay after treatment with MAL (dose series up to 100 μg/mL; maximum enhancement at 50 μg/mL), percent of the untreated control: 262%
